Assay results from patent publication US20230051701A1 (Bristol-Myers Squibb, published 2023).
Several values for one entry are separate records, joined by “and”; a condition that tells them apart may be missing. Equal values may be shown once.

Legend:
[1] = biological target: T1, N-terminal domain of hCD73 (residues 26-336 of human CD73), His-tagged (human, UniProt P21589 26-336); experiment: SPR, mAb captured on protein A
T1 construct: also called N-hCD73; N-hCD73-his
T1 sequence: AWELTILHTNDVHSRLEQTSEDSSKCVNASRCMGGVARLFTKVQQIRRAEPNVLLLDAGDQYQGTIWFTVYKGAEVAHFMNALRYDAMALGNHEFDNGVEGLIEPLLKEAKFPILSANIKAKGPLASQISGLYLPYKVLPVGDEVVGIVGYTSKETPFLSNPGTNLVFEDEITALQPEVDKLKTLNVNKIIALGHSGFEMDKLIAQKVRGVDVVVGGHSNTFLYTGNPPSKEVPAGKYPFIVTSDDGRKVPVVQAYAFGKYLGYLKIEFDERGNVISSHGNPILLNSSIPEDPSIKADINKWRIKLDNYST
Procedure: For these experiments, protein A (Pierce) was immobilized to a density of 3000 — 4000 RU on flow cells 1-4 of a CM5 sensor chip (GE Healthcare) using standard ethyl(dimethylaminopropyl) carbodiimide (EDC)/N-hydroxysuccinimide (NHS) chemistry, with ethanolamine blocking, in a running buffer of 0.01 M HEPES pH 7.4, 0.15 M NaCl, 3 mM EDTA, 0.005% v/v tween 20. […] The running buffer for the kinetic experiments was 10 mM sodium phosphate, 130 mM sodium chloride, 0.05% tween 20, pH 7.1. The surfaces were regenerated after each cycle using two 30 s pulses of 10 mM glycine pH 1.5 at a flow rate of 30 μl/min. Sensogram data was double-referenced and then fitted to a 1:1 Langmuir model using Biacore T100 evaluation software v2.0.4, to determine the association rate constant (ka), the dissociation rate constant (kd), and the equilibrium dissociation constant (KD).

[2] = biological target: T2, human CD73 on cells (Calu6, NCI-H292, SK-MEL-24, human tumor cell lines, human B and T cells) (human, UniProt P21589 27-549); experiment: cell-based or functional assay
T2 sequence: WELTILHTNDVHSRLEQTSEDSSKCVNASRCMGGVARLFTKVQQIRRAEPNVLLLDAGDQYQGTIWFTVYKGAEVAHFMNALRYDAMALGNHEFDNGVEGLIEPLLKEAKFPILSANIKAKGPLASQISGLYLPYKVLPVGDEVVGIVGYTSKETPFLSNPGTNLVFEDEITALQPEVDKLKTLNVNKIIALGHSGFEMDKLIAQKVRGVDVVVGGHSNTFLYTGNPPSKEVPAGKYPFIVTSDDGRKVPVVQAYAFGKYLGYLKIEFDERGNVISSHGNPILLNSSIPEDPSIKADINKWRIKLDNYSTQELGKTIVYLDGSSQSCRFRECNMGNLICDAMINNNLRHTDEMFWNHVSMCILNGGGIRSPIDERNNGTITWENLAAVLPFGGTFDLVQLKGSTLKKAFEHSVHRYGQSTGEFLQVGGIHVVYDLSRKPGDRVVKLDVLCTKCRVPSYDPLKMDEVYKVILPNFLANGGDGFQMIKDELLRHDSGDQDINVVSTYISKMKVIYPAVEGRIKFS

Kd [1] | koff [1] | kon [1] | CD73 Inhibition S:B, cAMP assay, Calu6 [2] | CD73 Inhibition EC50(nM), cAMP assay, Calu6 [2] | Binder
3.5 nM and 6.5 nM | 0.00028 s⁻¹ and 0.00051 s⁻¹ | 80000 M⁻¹ s⁻¹ and 79000 M⁻¹ s⁻¹ |  |  | CD73.11-IgG2-C219S (antibody, 4D4 variable regions; also called CD73.11-IgG2CS; mAb-CD73.11-Vh-hHC-IgG2-C219S) heavy: QVQLVESGGGVVQPGRSLRLSCAASGFTFSNYGMHWVRQAPGKGLEWVAVIWYDESNKYYADSVKGRFTISRDNSKNTLFLQMNSLRAEDTAVYYCARGYNSRWYPDAFDIWGQGTMVTVSSASTKGPSVFPLAPCSRSTSESTAALGCLVKDYFPEPVTVSWNSGALTSGVHTFPAVLQSSGLYSLSSVVTVPSSNFGTQTYTCNVDHKPSNTKVDKTVERKSCVECPPCPAPPVAGPSVFLFPPKPKDTLMISRTPEVTCVVVDVSHEDPEVQFNWYVDGVEVHNAKTKPREEQFNSTFRVVSVLTVVHQDWLNGKEYKCKVSNKGLPAPIEKTISKTKGQPREPQVYTLPPSREEMTKNQVSLTCLVKGFYPSDIAVEWESNGQPENNYKTTPPMLDSDGSFFLYSKLTVDKSRWQQGNVFSCSVMHEALHNHYTQKSLSLSPG light: not shown
 |  |  | 33 |  | CD73.4-IgG2.3-plusTHT (antibody) heavy: QVQLVESGGGVVQPGRSLRLSCAASGFTFSNYGMHWVRQAPGKGLEWVAVILYDGSNKYYPDSVKGRFTISRDNSKNTLYLQMNSLRAEDTAVYYCARGGSSWYPDSFDIWGQGTMVTVSSASTKGPSVFPLAPCSRSTSESTAALGCLVKDYFPEPVTVSWNSGALTSGVHTFPAVLQSSGLYSLSSVVTVPSSNFGTQTYTCNVDHKPSNTKVDKTVERKSCVETHTCPPCPAPPVAGPSVFLFPPKPKDTLMISRTPEVTCVVVDVSHEDPEVQFNWYVDGVEVHNAKTKPREEQFNSTFRVVSVLTVVHQDWLNGKEYKCKVSNKGLPAPIEKTISKTKGQPREPQVYTLPPSREEMTKNQVSLTCLVKGFYPSDIAVEWESNGQPENNYKTTPPMLDSDGSFFLYSKLTVDKSRWQQGNVFSCSVMHEALHNHYTQKSLSLSPGK light: not shown
 |  |  | 44 | 0.9 nM | CD73.4-IgG2.5-plusTHT (antibody) heavy: QVQLVESGGGVVQPGRSLRLSCAASGFTFSNYGMHWVRQAPGKGLEWVAVILYDGSNKYYPDSVKGRFTISRDNSKNTLYLQMNSLRAEDTAVYYCARGGSSWYPDSFDIWGQGTMVTVSSASTKGPSVFPLAPSSRSTSESTAALGCLVKDYFPEPVTVSWNSGALTSGVHTFPAVLQSSGLYSLSSVVTVPSSNFGTQTYTCNVDHKPSNTKVDKTVERKCCVETHTCPPCPAPPVAGPSVFLFPPKPKDTLMISRTPEVTCVVVDVSHEDPEVQFNWYVDGVEVHNAKTKPREEQFNSTFRVVSVLTVVHQDWLNGKEYKCKVSNKGLPAPIEKTISKTKGQPREPQVYTLPPSREEMTKNQVSLTCLVKGFYPSDIAVEWESNGQPENNYKTTPPMLDSDGSFFLYSKLTVDKSRWQQGNVFSCSVMHEALHNHYTQKSLSLSPGK light: not shown
 |  |  |  | 1.26 nM | CD73.4-IgG2.3-plusGGG (antibody) heavy: QVQLVESGGGVVQPGRSLRLSCAASGFTFSNYGMHWVRQAPGKGLEWVAVILYDGSNKYYPDSVKGRFTISRDNSKNTLYLQMNSLRAEDTAVYYCARGGSSWYPDSFDIWGQGTMVTVSSASTKGPSVFPLAPCSRSTSESTAALGCLVKDYFPEPVTVSWNSGALTSGVHTFPAVLQSSGLYSLSSVVTVPSSNFGTQTYTCNVDHKPSNTKVDKTVERKSCVEGGGCPPCPAPPVAGPSVFLFPPKPKDTLMISRTPEVTCVVVDVSHEDPEVQFNWYVDGVEVHNAKTKPREEQFNSTFRVVSVLTVVHQDWLNGKEYKCKVSNKGLPAPIEKTISKTKGQPREPQVYTLPPSREEMTKNQVSLTCLVKGFYPSDIAVEWESNGQPENNYKTTPPMLDSDGSFFLYSKLTVDKSRWQQGNVFSCSVMHEALHNHYTQKSLSLSPGK light: not shown
0.72 nM | 0.00022 s⁻¹ | 300000 M⁻¹ s⁻¹ |  |  | CD73.6-IgG2-C219S-IgG1.1f (antibody, also called CD73.6-IgG2CS IgG1.1f) heavy: QVQLVESGGGVVQPGRSLRLSCAASGFTFSNYGMHWVRQAPGKGLEWVAVILYDSSNKYYPDSVKGRFTISRDNSKNTLYLQMNSLRAEDTAVYYCARGGSSWYPDSFDIWGQGTMVTVSSASTKGPSVFPLAPCSRSTSESTAALGCLVKDYFPEPVTVSWNSGALTSGVHTFPAVLQSSGLYSLSSVVTVPSSNFGTQTYTCNVDHKPSNTKVDKTVERKSCVECPPCPAPPVAGPSVFLFPPKPKDTLMISRTPEVTCVVVDVSHEDPEVKFNWYVDGVEVHNAKTKPREEQYNSTYRVVSVLTVLHQDWLNGKEYKCKVSNKALPSSIEKTISKAKGQPREPQVYTLPPSREEMTKNQVSLTCLVKGFYPSDIAVEWESNGQPENNYKTTPPVLDSDGSFFLYSKLTVDKSRWQQGNVFSCSVMHEALHNHYTQKSLSLSPGK light: not shown
 |  |  | 42 | 0.44 nM | CD73.4-IgG2.5G1-KH (antibody) heavy: QVQLVESGGGVVQPGRSLRLSCAASGFTFSNYGMHWVRQAPGKGLEWVAVILYDGSNKYYPDSVKGRFTISRDNSKNTLYLQMNSLRAEDTAVYYCARGGSSWYPDSFDIWGQGTMVTVSSASTKGPSVFPLAPSSRSTSESTAALGCLVKDYFPEPVTVSWNSGALTSGVHTFPAVLQSSGLYSLSSVVTVPSSNFGTQTYTCNVDHKPSNTKVDKTVERKCCVECPPCPAPPVAGPSVFLFPPKPKDTLMISRTPEVTCVVVDVSHEDPEVKFNWYVDGVEVHNAKTKPREEQYNSTYRVVSVLTVLHQDWLNGKEYKCKVSNKALPAPIEKTISKAKGQPREPQVYTLPPSREEMTKNQVSLTCLVKGFYPSDIAVEWESNGQPENNYKTTPPVLDSDGSFFLYSKLTVDKSRWQQGNVFSCSVMHEALHNHYTQKSLSLSPGK light: not shown
 |  |  | 52 | 1.7 nM | CD73.4-IgG2.3G1-KH (antibody) heavy: QVQLVESGGGVVQPGRSLRLSCAASGFTFSNYGMHWVRQAPGKGLEWVAVILYDGSNKYYPDSVKGRFTISRDNSKNTLYLQMNSLRAEDTAVYYCARGGSSWYPDSFDIWGQGTMVTVSSASTKGPSVFPLAPCSRSTSESTAALGCLVKDYFPEPVTVSWNSGALTSGVHTFPAVLQSSGLYSLSSVVTVPSSNFGTQTYTCNVDHKPSNTKVDKTVERKSCVECPPCPAPPVAGPSVFLFPPKPKDTLMISRTPEVTCVVVDVSHEDPEVKFNWYVDGVEVHNAKTKPREEQYNSTYRVVSVLTVLHQDWLNGKEYKCKVSNKALPAPIEKTISKAKGQPREPQVYTLPPSREEMTKNQVSLTCLVKGFYPSDIAVEWESNGQPENNYKTTPPVLDSDGSFFLYSKLTVDKSRWQQGNVFSCSVMHEALHNHYTQKSLSLSPGK light: not shown
 |  |  | 51 | 2.17 nM | CD73.4-IgG2.5 (antibody) heavy: QVQLVESGGGVVQPGRSLRLSCAASGFTFSNYGMHWVRQAPGKGLEWVAVILYDGSNKYYPDSVKGRFTISRDNSKNTLYLQMNSLRAEDTAVYYCARGGSSWYPDSFDIWGQGTMVTVSSASTKGPSVFPLAPSSRSTSESTAALGCLVKDYFPEPVTVSWNSGALTSGVHTFPAVLQSSGLYSLSSVVTVPSSNFGTQTYTCNVDHKPSNTKVDKTVERKCCVECPPCPAPPVAGPSVFLFPPKPKDTLMISRTPEVTCVVVDVSHEDPEVQFNWYVDGVEVHNAKTKPREEQFNSTFRVVSVLTVVHQDWLNGKEYKCKVSNKGLPAPIEKTISKTKGQPREPQVYTLPPSREEMTKNQVSLTCLVKGFYPSDIAVEWESNGQPENNYKTTPPMLDSDGSFFLYSKLTVDKSRWQQGNVFSCSVMHEALHNHYTQKSLSLSPGK light: not shown
 |  |  | 45 | 0.87 nM | CD73.4-IgG2.5G1.1f-KH (antibody) heavy: QVQLVESGGGVVQPGRSLRLSCAASGFTFSNYGMHWVRQAPGKGLEWVAVILYDGSNKYYPDSVKGRFTISRDNSKNTLYLQMNSLRAEDTAVYYCARGGSSWYPDSFDIWGQGTMVTVSSASTKGPSVFPLAPSSRSTSESTAALGCLVKDYFPEPVTVSWNSGALTSGVHTFPAVLQSSGLYSLSSVVTVPSSNFGTQTYTCNVDHKPSNTKVDKTVERKCCVECPPCPAPPVAGPSVFLFPPKPKDTLMISRTPEVTCVVVDVSHEDPEVKFNWYVDGVEVHNAKTKPREEQYNSTYRVVSVLTVLHQDWLNGKEYKCKVSNKALPSSIEKTISKAKGQPREPQVYTLPPSREEMTKNQVSLTCLVKGFYPSDIAVEWESNGQPENNYKTTPPVLDSDGSFFLYSKLTVDKSRWQQGNVFSCSVMHEALHNHYTQKSLSLSPGK light: not shown
